This data set in a line: self-splicing fitness, log relative to wild type (ln ratio); higher = more splicing; Tetrahymena group I intron in knt gene, E. coli kanamycin selection, DiMSum; sequences stand for … in CUCUCU…GGAGGGAAAAGUUAUCAGGCAUGCACCUGGUAGCUAGUCUUUAAACCAAUAGAUUGCAUCGGUUUAAAAGGCAAGACCGUCAAAUUGCGGGAAAGGGGUCAACAGCCGUUCAGUACCAAGUCUCAGGGGAAACUUUGAGAUGGCCUUGCAAAGGGUAUGGUAAUAAGCUGACGGACAUGGUCCUAACCACGCAGCCAAGUCCUAAGUCAACAGAUCUUCUGUUGAUAUGGAUGCAGUUCACAGACUAAAUGUCGGUCGGGGAAGAUGUAUUCUUCUCAUAAGAUAUAGUCGGACCUCUCCUUAAUGGGAGCUAGCGGAUGAAGUGAUGCAACACUGGAGCCGCUGGGAACUAAUUUGUAUGCGAAAGUAUAUUGAUUAGUUUUGGAGUACUCGUGGUCG
Put shortly: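 Pooled colonies went to amplicon sequencing on an Illumina HiSeq 2500 after six replicate transformations. The plates were LB agar with 100 μg/mL carbenicillin, 50 μM IPTG and 0.2% rhamnose, with or without 25 μg/mL kanamycin, incubated overnight at 37°C or 30°C. The E. coli BL21(DE3) library had all eight P1ex-region intron nucleotides randomised, the intron placed in the knt kanamycin-resistance gene on pET-22b(+). DiMSum fitness is the error-weighted combination of replicate fold changes, kanamycin against none, normalised to wild type.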

± gives the uncertainty stated by the source.

Regarding ACCUAGCAAUAUUACGAUGG, the “self-splicing fitness (ln)” value reads like this: (30 °C) -3.01 ± 0.17; (37 °C) -0.981 ± 0.18.

As for AUAUAGCAAUAUUACGGACA, the “self-splicing fitness (ln)” value (30 °C) was -1.48 ± 0.22 and the “self-splicing fitness (ln)” value (37 °C) was -1.2 ± 0.23. With CACUAGCAAUAUUACGGGCC, the “self-splicing fitness (ln)” value is, setting by setting: (30 °C) -4.05 ± 0.25; (37 °C) -2.56 ± 0.22. On to UUUAAGCAAUAUUACGACCA, for which the “self-splicing fitness (ln)” value (30 °C) was -0.979 ± 0.27 and the “self-splicing fitness (ln)” value (37 °C) is -0.376 ± 0.24. Take GAUCAGCAAUAUUACGACAC: the “self-splicing fitness (ln)” value by setting is: (30 °C) 0.702 ± 0.14; (37 °C) 0.591 ± 0.17. On to AGUUAGCAAUAUUACGUCUU, for which the “self-splicing fitness (ln)” value was -0.214 ± 0.096 (30 °C) and 0.541 ± 0.13 (37 °C). Consider CCCGAGCAAUAUUACGACCU, for which the “self-splicing fitness (ln)” value was -2.45 ± 0.31 (30 °C) and -2.19 ± 0.32 (37 °C). For GCACAGCAAUAUUACGCUGC, the “self-splicing fitness (ln)” value is, setting by setting: (30 °C) -4.12 ± 0.37; (37 °C) -2.1 ± 0.3. In the case of CUGGAGCAAUAUUACGUAGU, the “self-splicing fitness (ln)” value (37 °C) was -3.43 ± 0.46. With GCUCAGCAAUAUUACGUGUG, the “self-splicing fitness (ln)” value (30 °C) is -1.26 ± 0.063 and the “self-splicing fitness (ln)” value (37 °C) is -0.824 ± 0.074. Turning to AGAUAGCAAUAUUACGCUUA, the “self-splicing fitness (ln)” value runs as follows: (30 °C) -0.901 ± 0.15; (37 °C) -1.08 ± 0.13. The matching figures for UUACAGCAAUAUUACGGGUU: -3.73 ± 0.12 and -2.34 ± 0.12.

Consider GGAUAGCAAUAUUACGUCGU, for which the “self-splicing fitness (ln)” value is -0.886 ± 0.1 (30 °C) and -0.841 ± 0.12 (37 °C). GGAAAGCAAUAUUACGUCCC: the “self-splicing fitness (ln)” value (37 °C) is -2.61 ± 0.33.

Turning to UAACAGCAAUAUUACGUAUG, the “self-splicing fitness (ln)” value runs as follows: (30 °C) -1.52 ± 0.058; (37 °C) -0.164 ± 0.075. The matching figures for ACCGAGCAAUAUUACGAUCC: -2.86 ± 0.34 and -1.94 ± 0.29.

For CAGCAGCAAUAUUACGUUCC, under “37 °C”, the “self-splicing fitness (ln)” value was -2.13 ± 0.25. Turning to UCCUAGCAAUAUUACGACAC, the “self-splicing fitness (ln)” value (30 °C) is -0.225 ± 0.29.

Consider AGGCAGCAAUAUUACGUACC, for which the “self-splicing fitness (ln)” value was -0.0574 ± 0.12 (30 °C) and 0.0331 ± 0.15 (37 °C). As to GCGUAGCAAUAUUACGCACA, the “self-splicing fitness (ln)” value (37 °C) was -1.71 ± 0.47.

Take AUCAAGCAAUAUUACGGUAU: the “self-splicing fitness (ln)” value by setting is: (30 °C) -1.93 ± 0.063; (37 °C) -0.833 ± 0.077.

Take GUCCAGCAAUAUUACGAAGG: the “self-splicing fitness (ln)” value (30 °C) was -1.34 ± 0.24 and the “self-splicing fitness (ln)” value (37 °C) is -1.66 ± 0.28. The matching figures for CGUGAGCAAUAUUACGUCAG: -1.86 ± 0.16 and -0.364 ± 0.15.

Regarding CCCUAGCAAUAUUACGACCG, the “self-splicing fitness (ln)” value (30 °C) is -1.21 ± 0.2 and the “self-splicing fitness (ln)” value (37 °C) was -2.17 ± 0.34. With CUACAGCAAUAUUACGGCUA, the “self-splicing fitness (ln)” value by setting is: (30 °C) -3.25 ± 0.25; (37 °C) -3.02 ± 0.22. The matching figures for CCCCAGCAAUAUUACGGUUG: -2.4 ± 0.087 and -1.5 ± 0.1.

With AACCAGCAAUAUUACGUAAU, the “self-splicing fitness (ln)” value is -1.45 ± 0.055 (30 °C) and -0.238 ± 0.069 (37 °C). With GACCAGCAAUAUUACGUGUC, the “self-splicing fitness (ln)” value is -3.52 ± 0.16 (30 °C) and -3.05 ± 0.24 (37 °C). As to AAUAAGCAAUAUUACGUUUU, the “self-splicing fitness (ln)” value reads like this: (30 °C) -1.78 ± 0.076; (37 °C) -1.55 ± 0.12. As to AGCGAGCAAUAUUACGAGCU, the “self-splicing fitness (ln)” value by setting is: (30 °C) -3.17 ± 0.24; (37 °C) -2.49 ± 0.22. In the case of GCGAAGCAAUAUUACGUUGC, where the note is “37 °C”, the “self-splicing fitness (ln)” value was -1.98 ± 0.2. As for GACCAGCAAUAUUACGAUAG, the “self-splicing fitness (ln)” value is -1.73 ± 0.074 (30 °C) and -1.45 ± 0.11 (37 °C). Consider GUACAGCAAUAUUACGCAUA, for which the “self-splicing fitness (ln)” value (30 °C) was -2.65 ± 0.15 and the “self-splicing fitness (ln)” value (37 °C) is -1.56 ± 0.11.

For the sequence ACGGAGCAAUAUUACGGGGA, the “self-splicing fitness (ln)” value by setting is: (30 °C) -1.07 ± 0.24; (37 °C) -3.6 ± 0.42.

Consider AUCGAGCAAUAUUACGGUCU, for which the “self-splicing fitness (ln)” value is, setting by setting: (30 °C) -3.03 ± 0.2; (37 °C) -1.77 ± 0.2.

Consider CUCUAGCAAUAUUACGAUAG, for which the “self-splicing fitness (ln)” value is, setting by setting: (30 °C) -3.88 ± 0.2; (37 °C) -3.58 ± 0.28.

Regarding GGAGAGCAAUAUUACGAAAA, the “self-splicing fitness (ln)” value (37 °C) is -0.772 ± 0.31. For the sequence GCCCAGCAAUAUUACGGGAU, the “self-splicing fitness (ln)” value was -1.74 ± 0.081 (30 °C) and -1.25 ± 0.1 (37 °C). Take AGGGAGCAAUAUUACGAGGA: the “self-splicing fitness (ln)” value (30 °C) is -3.08 ± 0.33. On to AGAGAGCAAUAUUACGGUCU, for which the “self-splicing fitness (ln)” value (30 °C) is -3.2 ± 0.15 and the “self-splicing fitness (ln)” value (37 °C) was -2.71 ± 0.29.

Values taken from the supplement of paper PMC7877785.
